“And” between values parts separate entries of the source, which are not always exact repeats. Equal entries are not always repeated.
B1: MATα1 R85L–E112L double mutant (enzyme)
chain: not shown
notes: methionine adenosyltransferase catalytic subunit MATα1, rat; ORF of pSSRL-T7N with two point mutations; source: E. coli BL21(DE3), IPTG-induced, in soluble fraction
B2: MATα1 R85L mutant (enzyme)
chain: not shown
notes: methionine adenosyltransferase catalytic subunit MATα1, rat; ORF of pSSRL-T7N with a point mutation; source: E. coli BL21(DE3), IPTG-induced, in soluble fraction
B3: MATα1 N106A mutant (enzyme)
chain: not shown
notes: as for B2
B4: wild-type MATα1 (SSRL), rat methionine adenosyltransferase catalytic subunit (enzyme)
chain: not shown
notes: methionine adenosyltransferase catalytic subunit MATα1, rat; the rat MATα1 ORF in plasmid pSSRL-T7N; Found as homo-dimers (MAT III) and homo-tetramers (MAT I) in an equilibrium that depends on protein concentration; also called MAT I (homo-tetramer); MAT III (homo-dimer); source: E. coli BL21(DE3), IPTG-induced, in soluble fraction
B5: MATα1 Q81T mutant (enzyme)
chain: not shown
notes: as for B2
B6: MATα1 R85E mutant (enzyme)
chain: not shown
notes: as for B2
B7: MATα1 E112L mutant (enzyme)
chain: not shown
notes: as for B2
B8: MATα1 T63V mutant (enzyme)
chain: not shown
notes: as for B2
B9: MATα1 R85L–T63V double mutant (enzyme)
chain: not shown
notes: as for B1

Legend:
[1] = target: the molecule itself; assay: hydrophobic chromatography on phenyl Sepharose; soluble fractions of E. coli at 0.5 mg/mL (2 mL) on phenyl Sepharose in 50 mM Tris/HCl pH 8, 10 mM MgSO4, 1 mM EDTA; tetramers in the flowthrough, dimers eluted with 50% (v/v) DMSO; dot-blot with anti-MATα1 antiserum, dimer/tetramer ratio by densitometry
[2] = target: the molecule itself; assay: SEC; analytical gel filtration (AGFC): soluble fractions of E. coli at 0.5 mg/mL (100 µL) on Superose 12 10/30 HR in 50 mM Tris/HCl pH 8, 10 mM MgSO4, 1 mM EDTA, 150 mM KCl, 0.3 mL/min; fractions read by dot-blot with anti-MATα1 antiserum; homo-dimers and homo-tetramers separated by size

| Protein | stoichiometry N [1] | stoichiometry N [2] |
| --- | --- | --- |
| B1 | 2 | – |
| B2 | 2 and 4 | – |
| B3 | 4 | – |
| B4 | – | 2 and 4 |
| B5 | 4 | – |
| B6 | 2 | – |
| B7 | 4 | – |
| B8 | 2 | – |
| B9 | 2 | – |
